Results published in PMC11109196 (2024).

Experiments:
Assay in all cases: BLI
Bal gp120 [1] = target: Bal gp120 (HIV-1 isolate Bal)
[2] = target: T1, gp120 A2 (clade A, 92UG037.8) (HIV-1 isolate 92UG037.8)
[3] = target: T2, gp120 Czm (clade C, 96ZM652) (HIV-1 isolate 96ZM652)
[4] = target: gp120 AE (clade E, 93TH976.17) (HIV-1 isolate 93TH976.17)
[5] = target: gp120 B (clade B, 92US715.6) (HIV-1 isolate 92US715.6)
Bal gp120 [6] = target: Bal gp120 (HIV-1 isolate Bal); remark: listed apart in the source
[7] = target: T1, gp120 A2 (clade A, 92UG037.8); remark: listed apart in the source
[8] = target: T2, gp120 Czm (clade C, 96ZM652); remark: listed apart in the source

B1: HmAb64 (antibody, V domains shown)
VH: QVQLVQSGAEVKKPGASVKVSCKASGYTFTSYDITWVRQAPGQGLEWMGWISAYNGDTNYAQRLQGRVTMTTDTSTSTAYMELRSLRSDDTAVYYCARAKHTVLVTAMRWFDPWGQGTLVTVSS
VL: DIQMTQSPSSLSASVGDRVTITCRASQSISNYLNWYQQKPGKAPKLLISATSSLQSGVPSRFSGSGSGTDFTLTISSLQPDDFATYYCQQSYSTPWTFGQGTKLEIK
B1 gave a Kd (Bal gp120 [1]) of 16 nM, a Kd [2] of 39.4 nM and a Kd [3] of 22.5 nM. It also gave a Kd [4] of 20 nM, a koff [4] of 0.000423 s⁻¹ and a Kd [5] of 22.9 nM. It also gave a koff [5] of 0.000684 s⁻¹, a koff (Bal gp120 [6]) of 0.000459 s⁻¹ and a koff [7] of 0.000641 s⁻¹. The koff [8] was 0.000454 s⁻¹.
